Data taken from patent EP4793641A1, “NOVEL METHOD FOR ANALYZING BIOMOLECULAR INTERACTIONS” (Kyoto University, priority 2023, dated 2025).
Non-standard residues stand in square brackets, D forms with d. Residues, ends and D or L forms follow the SMILES beside them. Primed or numbered codes have the meaning given here. No end group written: not given here. *: point of attachment. 5FAM = O=C1OC2(c3ccc(O)cc3Oc3cc(O)ccc32)c2ccc(C(=O)*)cc21; Me′ = methyl group capping the C-terminus; pT = C[C@@H](OP(=O)(O)O)[C@H](N)C(=O)O; F(-Me) = not defined here; Mob = COc1ccc(C*)cc1; Acm = CC(=O)NC*; Cam = NC(=O)C*

These molecules were tested against Talin 1 (TLN1) (UniProt Q9Y490) (assay: flip-flop luminescence detection on DNA origami, inhibition of the TLN1-ITGB complex). Conditions: not given.
Chain of Talin 1 (TLN1) (Q9Y490 1-405): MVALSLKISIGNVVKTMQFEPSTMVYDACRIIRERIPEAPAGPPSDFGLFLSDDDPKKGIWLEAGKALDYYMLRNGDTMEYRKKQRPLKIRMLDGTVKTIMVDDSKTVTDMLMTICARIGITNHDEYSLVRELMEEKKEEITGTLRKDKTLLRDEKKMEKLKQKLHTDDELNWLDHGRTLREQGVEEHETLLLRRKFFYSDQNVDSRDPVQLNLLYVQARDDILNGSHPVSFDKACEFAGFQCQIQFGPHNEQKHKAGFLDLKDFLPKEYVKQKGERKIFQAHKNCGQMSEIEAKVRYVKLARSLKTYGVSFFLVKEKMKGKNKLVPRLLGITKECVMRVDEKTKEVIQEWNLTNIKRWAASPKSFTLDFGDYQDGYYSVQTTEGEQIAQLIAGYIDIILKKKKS

IC50 [µM]	Molecule
1830	KYEKEKMNCKWMT [FIYM51]
38.1	5FAM-KFEKEKMNCKWMT [FIYM21]
41.2	Ace-KFEKEKMNCKWMT-{Me′} [FIYM15]
1040	RFEKEKMMCKWMT [FIYM31]
42000	EFEKEKMNCKWMT [FIYM53]
1070	KFEKEKMNC(Me)KWMT [FIYM44]
8130	DFEKEKMNCKWMT [FIYM52]
1860	KYEKEKMNAKWDT [FIYM50]
212	K[F(-Me)]EKEKMNCKWMT (reading uncertain; also: printed as KF(-Me)EKEKMNCKWMT) [FIYM19]

The molecules below were run against T1, interactions between Talin 1 (TLN1) and integrin subunit beta (ITGB) (Homo sapiens, UniProt Q9Y490) (assay: Flip-flop detection mechanism on DNA origami (LgBit/SmBit luminescence), inhibitor screening). Conditions: inhibition of binding between TLN1 and ITBG.
T1 construct: LgBit or SmBit (N-terminal of the HaloTag); made in house
Format: biochemical
Source text: Two types of systems, i.e., flip-flop detection mechanism and switch detection mechanism, were constructed by using HaloTag, LgBit, SmBit, TLN1, and ITGB. Each of TLN1 (Uniprot ID: Q9Y490) and ITGB1 (Uniprot ID: P05556) was cloned from the registered genetic information. HaloTAg has three chemically modifiable locations at a ligand recognition site, C-terminus, and N-terminus. In this Example, a single-stranded DNA for attaching to DNA origami was connected to a ligand recognition site of HaloTag, a subunit of an interaction complex was connected to the C-terminus, and LgBit or SmBit was connected to the N-terminus.
The outline of the system is disclosed in Figure 23. When TLN1 and ITBG are in a bound state in this system, LgBit and SmBit are at spatially separated positions from each other, with a HaloTag interposed therebetween. In this regard, if an inhibitor is added, complex formation of TLN1 and ITBG is inhibited. As a result, a LgBit-SmBit complex can be formed, and a luminescence reaction progresses.
As a candidate drug for inhibiting the binding between TLN1 and ITBG, peptide inhibitors consisting of 13 amino acids prepared by modifying amino acids in an intracellular region of ITGB3 have been designed (Shen B. et al., A directional switch of integrin signaling and a new antithrombotic strategy. Nature 503, 131-135 (2013)). IC50 values for the peptides shown in the following table were calculated by using the flip-flop detection mechanism described in Example 11 for optimizing the sequence. In this manner, the effect of a large number of compounds on the interaction with a target protein can be readily analyzed in the system of the present disclosed.

Inhibitory activity	Molecule
no inhibition	CC[C@H](C)[C@H](NC(=O)[C@@H]1CCCN1C(=O)[C@H](CC(N)=O)NC(=O)[C@H](CCC(=O)O)NC(=O)CNC(=O)[C@@H](NC(=O)[C@H](CC(=O)O)NC(=O)[C@H](Cc1c[nH]c2ccccc12)NC(=O)[C@H](CCCCN)NC(=O)[C@H](C)NC(=O)[C@H](CC(N)=O)NC(=O)[C@H](CCSC)NC(=O)[C@H](CCCCN)NC(=O)[C@H](CCC(=O)O)NC(=O)[C@H](CCCCN)NC(=O)[C@H](CCC(=O)O)NC(=O)[C@H](Cc1ccccc1)NC(=O)[C@H](CCCCN)NC(=O)[C@H](C)NC(=O)[C@H](Cc1ccccc1)NC(=O)[C@@H](N)CCC(=O)O)[C@@H](C)O)C(=O)N[C@@H](Cc1ccc(O)cc1)C(=O)N[C@@H](CCCCN)C(=O)O [FIYM7] (H-EFAKFEKEKMNAKWDTGENPIYK-OH)
no inhibition	CSCC[C@H](NC(=O)[C@H](CCCCN)NC(=O)[C@H](CCC(=O)O)NC(=O)[C@H](CCCCN)NC(=O)[C@H](CCC(=O)O)NC(=O)[C@H](C)NC(=O)[C@@H](N)CCCCN)C(=O)N[C@@H](CC(N)=O)C(=O)N[C@@H](C)C(=O)N[C@@H](CCCCN)C(=O)N[C@@H](C)C(=O)N[C@@H](CC(=O)O)C(=O)N[C@H](C(=O)O)[C@@H](C)O [FIYM2] (H-KAEKEKMNAKADT-OH)
no inhibition	CSCC[C@H](NC(=O)[C@H](CCCCN)NC(=O)[C@H](CCC(=O)O)NC(=O)[C@H](CCCCN)NC(=O)[C@H](CCC(=O)O)NC(=O)[C@H](Cc1ccccc1)NC(=O)[C@@H](N)CCCCN)C(=O)N[C@@H](CC(N)=O)C(=O)N[C@@H](CSCNC(C)=O)C(=O)N[C@@H](CCCCN)C(=O)N[C@@H](Cc1c[nH]c2ccccc12)C(=O)N[C@@H](CCSC)C(=O)N[C@H](C(=O)O)[C@@H](C)O [FIYM38] (H-KFEKEKMNC(Acm)KWMT-OH)
no inhibition	COc1ccc(CSC[C@H](NC(=O)[C@H](CC(N)=O)NC(=O)[C@H](CCSC)NC(=O)[C@H](CCCCN)NC(=O)[C@H](CCC(=O)O)NC(=O)[C@H](CCCCN)NC(=O)[C@H](CCC(=O)O)NC(=O)[C@H](Cc2ccccc2)NC(=O)[C@@H](N)CCCCN)C(=O)N[C@@H](CCCCN)C(=O)N[C@@H](Cc2c[nH]c3ccccc23)C(=O)N[C@@H](CCSC)C(=O)N[C@H](C(=O)O)[C@@H](C)O)cc1 [FIYM42] (H-KFEKEKMNC(Mob)KWMT-OH)
no inhibition	CSCC[C@H](NC(=O)[C@H](CCCCN)NC(=O)[C@H](CCC(=O)O)NC(=O)[C@H](CCCCN)NC(=O)[C@H](CCC(=O)O)NC(=O)[C@H](Cc1ccccc1)NC(=O)[C@@H](N)CCCCN)C(=O)N[C@@H](CC(N)=O)C(=O)N[C@@H](CS)C(=O)N[C@@H](CCCCN)C(=O)N[C@@H](Cc1c[nH]c2ccccc12)C(=O)N[C@@H](CCSC)C(=O)N[C@H](C(=O)O)[C@@H](C)OP(=O)(O)O [FIYM13] (H-KFEKEKMNCKWM[pT]-OH)

Same assay, conditions: inhibition of binding between TLN1 and ITBG, read-out: Inhibitory activity

IC50 [µM]	Molecule
474	CSCC[C@H](NC(=O)[C@H](C)NC(=O)[C@H](CCCCN)NC(=O)[C@H](CS)NC(=O)[C@H](CC(N)=O)NC(=O)[C@H](CCSC)NC(=O)[C@H](CCCCN)NC(=O)[C@H](CCC(=O)O)NC(=O)[C@H](CCCCN)NC(=O)[C@H](CCC(=O)O)NC(=O)[C@H](C)NC(=O)[C@@H](N)CCCCN)C(=O)N[C@H](C(=O)O)[C@@H](C)O [FIYM46] (H-KAEKEKMNCKAMT-OH)
94.7	CSCC[C@H](NC(=O)[C@H](CCCCN)NC(=O)[C@H](CCC(=O)O)NC(=O)[C@H](CCCNC(=N)N)NC(=O)[C@H](CCC(=O)O)NC(=O)[C@H](Cc1ccccc1)NC(=O)[C@@H](N)CCCCN)C(=O)N[C@@H](CC(N)=O)C(=O)N[C@@H](CS)C(=O)N[C@@H](CCCCN)C(=O)N[C@@H](Cc1c[nH]c2ccccc12)C(=O)N[C@@H](CCSC)C(=O)N[C@H](C(=O)O)[C@@H](C)O [FIYM27] (H-KFEREKMNCKWMT-OH)
76.9	CSCC[C@H](NC(=O)[C@H](CCCCN)NC(=O)[C@H](CCC(=O)O)NC(=O)[C@H](CCCCN)NC(=O)[C@H](CCC(=O)O)NC(=O)[C@H](Cc1ccccc1)NC(=O)[C@@H](N)CCCNC(=N)N)C(=O)N[C@@H](CC(N)=O)C(=O)N[C@@H](CS)C(=O)N[C@@H](CCCCN)C(=O)N[C@@H](Cc1c[nH]c2ccccc12)C(=O)N[C@@H](CCSC)C(=O)N[C@H](C(=O)O)[C@@H](C)O [FIYM26] (H-RFEKEKMNCKWMT-OH)
41.2	Ace-KFEKEKMNCKWMT-Me (Ace-KFEKEKMNCKWMT-{Me′}) [FIYM15]
131	CSCC[C@H](NC(=O)[C@H](CCCCN)NC(=O)[C@H](CCC(=O)O)NC(=O)[C@H](CCCCN)NC(=O)[C@H](CCC(=O)O)NC(=O)[C@H](Cc1ccccc1)NC(=O)[C@@H](N)CCCCN)C(=O)N[C@@H](CC(N)=O)C(=O)N[C@@H](CSCC(N)=O)C(=O)N[C@@H](CCCCN)C(=O)N[C@@H](Cc1c[nH]c2ccccc12)C(=O)N[C@@H](CCSC)C(=O)N[C@H](C(=O)O)[C@@H](C)O [FIYM39] (H-KFEKEKMNC(Cam)KWMT-OH)

Same assay, conditions: inhibition of binding between TLN1 and ITBG, µM, read-out: Inhibitory activity

IC50 [µM]	Molecule
107	CSCC[C@H](NC(=O)[C@H](CCCCN)NC(=O)[C@H](CCC(=O)O)NC(=O)[C@H](CCCCN)NC(=O)[C@H](CCC(=O)O)NC(=O)[C@H](Cc1ccccc1)NC(=O)[C@H](CCCCN)NC(=O)[C@H](Cc1c[nH]cn1)NC(=O)[C@H](Cc1c[nH]cn1)NC(=O)[C@H](Cc1c[nH]cn1)NC(=O)[C@H](Cc1c[nH]cn1)NC(=O)[C@H](Cc1c[nH]cn1)NC(=O)[C@H](Cc1c[nH]cn1)NC(=O)[C@@H](N)CCSC)C(=O)N[C@@H](CC(N)=O)C(=O)N[C@@H](CS)C(=O)N[C@@H](CCCCN)C(=O)N[C@@H](Cc1c[nH]c2ccccc12)C(=O)N[C@@H](CCSC)C(=O)N[C@H](C(=O)O)[C@@H](C)O [FIYM49] (H-MHHHHHHKFEKEKMNCKWMT-OH)
